Measured values from the supplement of paper PMC9732359.
± gives the uncertainty stated by the source.

Assay: protein stability index of a GFP-peptide fusion (yeast GPS) (PSI 1-4); higher = more stable; sorted into four equal gates, so the index is relative within each strain
How it was run: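 Sequencing reads from sorted gates were used to score each peptide. The library consisted of tiled 17-residue yeast protein peptides fused downstream of GFP on a Cherry-expressing plasmid, pooled and carried in yeast. Mid-log cultures in leucine-free medium were split into four equal gates by GFP/Cherry ratio, and each gate's plasmids were PCR-amplified and Illumina-sequenced. The protein stability index adds up, over all gates, the read frequency multiplied by the gate number.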

Sequence	protein stability index (doa10∆)	protein stability index (pdr5∆)	protein stability index (san1∆)	protein stability index (ubr1∆)
KPVKVALIFIFFAYFIG [YJL039C/NUP192]	1.66 ± 0.042	1.4 ± 0.037	1.38 ± 0.064	1.4 ± 0.027
KTVKELRQLLKERYTVE [RRI1]	2.74 ± 0.054	2.1 ± 0.062	2.1 ± 0.066	3.06 ± 0.068
GSSRIIASDGSECIVSI [RRP42]	3.33 ± 0.14	3.27 ± 0.075	3.11 ± 0.061	3.12 ± 0.15
KKVSRRNARAARAAKIA [RPL13B]	3.05 ± 0.084	2.65 ± 0.11	2.63 ± 0.18	2.69 ± 0.045
LNCGNGMGIGFIDHHAA [POP1]	3.33 ± 0.086	3.13 ± 0.07	3.33 ± 0.07	3.42 ± 0.046
MTAMRLMLKKLKNSIMS [YML031W/NDC1]	1.6 ± 0.085	1.99 ± 0.087	2.16 ± 0.12	2.28 ± 0.059
NEPAARLGSEADAKAFL [FAS2]	3.45 ± 0.065	3.42 ± 0.058	3.35 ± 0.042	3.31 ± 0.077
VHCRISCQIAQPYEDRP [RRP45]	1.63 ± 0.064	2.12 ± 0.12	1.52 ± 0.22	1.92 ± 0.077
LMTSHTKGDTSKATGAP [RTT102]	3.12 ± 0.068	3.34 ± 0.079	3.27 ± 0.059	3.17 ± 0.06
RILKLGTQLATLKNRGL [YGR119C/NUP57]	2.29 ± 0.078	2.57 ± 0.068	2.65 ± 0.081	2.84 ± 0.046
TVEGISKLLREHGYQSR [RPB2]	3.4 ± 0.21	2.97 ± 0.21	–	2.64 ± 0.093
DKYHEQWIKFLLHTLYL [SSN8]	2.62 ± 0.1	2.2 ± 0.076	1.93 ± 0.13	2.43 ± 0.052
IGDYILKSPVLSKLCVP [QCR7]	1.55 ± 0.061	1.36 ± 0.078	1.56 ± 0.11	1.69 ± 0.058
LNESDCLEACSFILSSL [YDL116W/NUP84]	2.62 ± 0.056	2.58 ± 0.052	2.96 ± 0.052	2.65 ± 0.041
LNVPVFQIVIEPLAIAL [ARP7]	1.65 ± 0.052	1.66 ± 0.055	1.48 ± 0.078	1.25 ± 0.045
SKISQMAQNKTHIPQTN [YLR018C/POM34]	1.83 ± 0.24	2.21 ± 0.12	2.07 ± 0.1	1.95 ± 0.07
YSKNNPNLLFSMCGFEV [PRP8]	2.96 ± 0.093	2.69 ± 0.093	2.17 ± 0.076	2.4 ± 0.092
RADTDLAMNDDDFLSKK [SNF2]	3.35 ± 0.094	3.59 ± 0.079	3.22 ± 0.076	3.42 ± 0.067
SHAVEFFMSERSSRLHI [YML103C/NUP188]	2.5 ± 0.067	2.73 ± 0.079	2.75 ± 0.087	2.4 ± 0.049
DFDLFKEVLPDLQNLNL [YJL039C/NUP192]	3.44 ± 0.095	3.17 ± 0.11	3.19 ± 0.07	3.4 ± 0.16
QFEWHQNSLLTNTHPNF [SNF2]	2.87 ± 0.063	2.88 ± 0.08	3.09 ± 0.066	2.99 ± 0.047
FAGSNNQPHQSQTPSFN [YOR098C/NUP1]	2.68 ± 0.046	2.91 ± 0.036	2.73 ± 0.036	3.01 ± 0.031
LTKFRQKLMQLVVLTDV [RGR1]	1.26 ± 0.097	1.16 ± 0.074	1.24 ± 0.18	1.13 ± 0.05
TKEVESNIITKSLVQYI [DIS3]	2.71 ± 0.14	3.05 ± 0.11	2.65 ± 0.076	2.87 ± 0.19
RNVNWIERLTKRQFNNS [ITC1]	3.05 ± 0.12	3.36 ± 0.15	3.05 ± 0.13	3.41 ± 0.12
ANKEKKRAEKAARKAEK [RPL24B]	3.34 ± 0.095	3.36 ± 0.082	3.58 ± 0.066	3.52 ± 0.078
QETASPLSQDELISLRK [YIL149C/MLP2]	2.42 ± 0.06	2.22 ± 0.074	1.89 ± 0.11	2.13 ± 0.061

Sequence	protein stability index (doa10∆)	protein stability index (pdr5∆)	protein stability index (san1∆)	protein stability index (ubr1∆)
KERISVAAASKILSNLV [PRE2]	2.75 ± 0.059	2.69 ± 0.041	2.78 ± 0.048	2.71 ± 0.034
FGAPNNPNSTAITADLG [YGL172W/NUP49]	3.04 ± 0.094	3 ± 0.078	3.03 ± 0.058	2.84 ± 0.087
EISTSKKNNLEFGTYGK [RPN14]	2.6 ± 0.08	2.13 ± 0.061	2.17 ± 0.082	2.04 ± 0.059
ETKADGILLETISVPQI [RRP6]	2.58 ± 0.076	2.52 ± 0.056	2.51 ± 0.061	2.26 ± 0.053
TIKVAGTPLLEVRGQVP [SNU114]	2.67 ± 0.08	2.69 ± 0.067	2.94 ± 0.063	2.98 ± 0.069
NGGLIHVVTREKGPQVC [RPO21]	2.93 ± 0.14	3.09 ± 0.11	2.37 ± 0.13	2.96 ± 0.12
GLSVTQKVFVRSRNGGA [DIS3]	1.46 ± 0.071	1.32 ± 0.065	1.4 ± 0.15	1.62 ± 0.063
DKLLDPTTVSYIFCISR [SCL1]	2.97 ± 0.045	3.1 ± 0.06	3.181 ± 0.029	3.22 ± 0.051
NESLIPLINLALIDTEF [YML103C/NUP188]	2.51 ± 0.11	1.9 ± 0.088	1.32 ± 0.15	2.1 ± 0.12
SEGSGSSLVQKGLETID [RPC53]	3.35 ± 0.16	3.14 ± 0.14	–	3.08 ± 0.063
NKASLAQYEVLANYLTS [QCR2]	2.42 ± 0.063	2.41 ± 0.051	2.5 ± 0.075	2.64 ± 0.081
ERAKNVNGLLQVLMDIN [GAL11]	2.94 ± 0.086	3.15 ± 0.083	3.19 ± 0.12	2.83 ± 0.04
YSWLLFEASCMEGQKLD [YJR042W/NUP85]	1.09 ± 0.094	1.36 ± 0.09	1.39 ± 0.2	1.17 ± 0.064
ASEREELALIEEAYDNP [PRP8]	3 ± 0.12	3.23 ± 0.096	3.35 ± 0.065	3.5 ± 0.14
KKVMPAIVVRQAKSWRR [RPL23A]	2.84 ± 0.14	2.85 ± 0.088	2.64 ± 0.16	2.99 ± 0.063
TKDKAKKIREIYRYDEM [BRR2]	2.58 ± 0.14	2.71 ± 0.1	2.46 ± 0.14	2.89 ± 0.059
EKSDALVGVYRQQQENS [SMC1]	3.25 ± 0.13	3.37 ± 0.098	3.41 ± 0.12	2.85 ± 0.096
HLALEIGEVYNDQVEKD [RPN1]	–	–	3.41 ± 0.19	–
LKRISDGLSFGKGESVI [SIR3]	3.21 ± 0.28	–	3.33 ± 0.099	3.76 ± 0.19
GLSILFLTGQFASNKKI [YML103C/NUP188]	2.36 ± 0.068	2.37 ± 0.062	2.68 ± 0.079	2.35 ± 0.052
PSVKRQKMAELEAARSE [PRP8]	3.31 ± 0.1	3.26 ± 0.075	3.31 ± 0.074	3.28 ± 0.077
SKPAFSFGAKSDEKKDG [YJL041W/NSP1]	3.25 ± 0.17	2.97 ± 0.13	3.25 ± 0.12	–
TVMYQRRSKMNPLWNAI [PRE4]	2.83 ± 0.084	3.18 ± 0.11	2.66 ± 0.089	3.09 ± 0.072
NHVMYTEVSRKSMKYVK [ECM29]	2.37 ± 0.055	2.61 ± 0.06	2.27 ± 0.078	2.23 ± 0.039
KIAGIEGHLAEIRAKEY [SRB2]	3.36 ± 0.12	3.41 ± 0.097	3.4 ± 0.071	3.31 ± 0.058
PRETIPFLHLRKKTPAG [FAS2]	2.73 ± 0.13	2.43 ± 0.1	2.63 ± 0.13	2.78 ± 0.094
